The results in this text go back to PMC11696079 (Nature Communications, 2025).

Values joined by “and” are separate entries in the source; they are usually repeats but may differ in a detail not shown here. Equal entries are not always repeated.

For this experiment, the target named is recombinant wild-type PKM2 (WT) (UniProt P14618 1-531). Kind of experiment: SPR. For orientation: SPR reads the build-up and loss of mass on a sensor chip optically.
Sequence of recombinant wild-type PKM2 (WT) (P14618 whole entry): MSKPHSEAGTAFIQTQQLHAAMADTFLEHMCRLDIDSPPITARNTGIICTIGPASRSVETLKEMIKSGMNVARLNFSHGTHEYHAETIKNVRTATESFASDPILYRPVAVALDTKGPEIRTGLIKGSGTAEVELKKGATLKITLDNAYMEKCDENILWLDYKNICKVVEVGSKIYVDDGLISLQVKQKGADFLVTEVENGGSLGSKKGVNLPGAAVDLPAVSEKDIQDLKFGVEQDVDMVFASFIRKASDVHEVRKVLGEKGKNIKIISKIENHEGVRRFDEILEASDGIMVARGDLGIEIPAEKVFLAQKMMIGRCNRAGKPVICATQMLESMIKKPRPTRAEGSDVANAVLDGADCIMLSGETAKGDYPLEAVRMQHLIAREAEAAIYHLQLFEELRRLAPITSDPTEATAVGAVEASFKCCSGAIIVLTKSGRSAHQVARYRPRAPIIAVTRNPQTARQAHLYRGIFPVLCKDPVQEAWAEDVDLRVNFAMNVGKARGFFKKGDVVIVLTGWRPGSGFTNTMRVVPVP

B1: recombinant wild-type ALDOA (WT) (enzyme)
chain: PYQYPALTPEQKKELSDIAHRIVAPGKGILAADESTGSIAKRLQSIGTENTEENRRFYRQLLLTADDRVNPCIGGVILFHETLYQKADDGRPFPQVIKSKGGVVGIKVDKGVVPLAGTNGETTTQGLDGLSERCAQYKKDGADFAKWRCVLKIGEHTPSALAIMENANVLARYASICQQNGIVPIVEPEILPDGDHDLKRCQYVTEKVLAAVYKALSDHHIYLEGTLLKPNMVTPGHACTQKFSHEEIAMATVTALRRTVPPAVTGITFLSGGQSEEEASINLNAINKCPLLKPWALTFSYGRALQASALKAWGGKKENLKAAQEEYVKRALANSLACQGKYTPSGQAGAAASESLFVSNHAY
Take B1: the dissociation constant (Kd) was 382 nM and 322 nM.

As usually defined, the Kd is the concentration at which binding is half-saturated.
